Data as given in patent US20150337046A1 (published 2015).
Each block holds one binder with its values, some of them ahead of it.

Biological target: T1, human LIGHT (hLIGHT), cell surface-expressed, full length (UniProt O43557 1-240)
T1 chain: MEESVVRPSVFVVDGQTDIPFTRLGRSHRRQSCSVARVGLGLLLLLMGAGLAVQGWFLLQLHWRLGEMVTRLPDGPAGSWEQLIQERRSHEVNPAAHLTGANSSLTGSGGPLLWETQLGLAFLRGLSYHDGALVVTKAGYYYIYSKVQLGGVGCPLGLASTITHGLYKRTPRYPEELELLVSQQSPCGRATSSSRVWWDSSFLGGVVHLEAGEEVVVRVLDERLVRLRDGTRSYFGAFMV
Experiment: FACS binding; 293-hLIGHT cells

- EC50: 0.547 µg/mL
B1: recombinant single kappa chain antibody of E1 heavy chain paired with Elkappa(B) (antibody, V domains shown)
VH: EVQLVESGGGLVQPGGSLRLSCAASGFTFSRFNMNWVRQAPGKGLEWVSYISSSSYTIYYADSVKGRFTISRDNAKNSLDLQMNSLRDEDTAVYYCARSIAAAFDYWGQGALVTVSS
VL: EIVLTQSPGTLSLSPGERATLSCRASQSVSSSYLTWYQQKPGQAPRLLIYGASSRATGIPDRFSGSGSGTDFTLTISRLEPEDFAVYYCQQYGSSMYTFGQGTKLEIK

- EC50: 0.463 µg/mL
B2: E1 antibody (produced by hybridoma 124 E1, ATCC Accession No. PTA-7729) (antibody, V domains shown)
VH: B1 VH
VL: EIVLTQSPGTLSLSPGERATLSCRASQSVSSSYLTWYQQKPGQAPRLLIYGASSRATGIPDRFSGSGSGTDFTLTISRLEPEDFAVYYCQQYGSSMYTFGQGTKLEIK
